Here are results for two molecules from patent US20200317802A1 (Merck KGaA, published 2020).

One experiment deals with T1, rat recombinant ADAMTS5 (rat, UniProt Q9R001 262-618 (mouse entry)).
T1 construct: in house, HEK293, His tag in the entry
T1 chain: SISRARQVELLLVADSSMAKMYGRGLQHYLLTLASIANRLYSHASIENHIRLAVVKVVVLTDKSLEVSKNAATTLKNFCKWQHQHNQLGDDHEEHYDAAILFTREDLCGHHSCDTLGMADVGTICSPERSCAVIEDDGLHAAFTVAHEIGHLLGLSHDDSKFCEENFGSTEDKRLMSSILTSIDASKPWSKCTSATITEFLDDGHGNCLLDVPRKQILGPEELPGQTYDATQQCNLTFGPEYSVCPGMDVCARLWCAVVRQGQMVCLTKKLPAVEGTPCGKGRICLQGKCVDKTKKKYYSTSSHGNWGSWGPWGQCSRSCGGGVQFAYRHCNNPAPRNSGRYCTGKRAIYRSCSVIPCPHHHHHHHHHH
As to the kind of experiment: SPR kinetics, Biacore T100, ADAMTS5 immobilised. How it is done: (§1) For referencing, affinity for human ADAMTS5 was also determined. Thereto, rat and human ADAMTS5 were immobilized onto a CM5 chip via amine coupling, using EDC and NHS chemistry. Purified Nanobodies were injected for 2 minutes at different concentrations (between 1 and 1000 nM) and allowed to dissociate for 25 min at a flow rate of 45 μl/min. The kinetic constants were calculated from the sensorgrams using the BIAEvaluation software (1:1 interaction).
(Surface plasmon resonance follows binding to a sensor surface in real time, without labels.)

The target of experiment [1] is T2, recombinant human ADAMTS5 (R&D Systems cat #2198-AD) (human, UniProt Q9UNA0 262-622, limits assumed).
T2 construct: bought protein
T2 sequence: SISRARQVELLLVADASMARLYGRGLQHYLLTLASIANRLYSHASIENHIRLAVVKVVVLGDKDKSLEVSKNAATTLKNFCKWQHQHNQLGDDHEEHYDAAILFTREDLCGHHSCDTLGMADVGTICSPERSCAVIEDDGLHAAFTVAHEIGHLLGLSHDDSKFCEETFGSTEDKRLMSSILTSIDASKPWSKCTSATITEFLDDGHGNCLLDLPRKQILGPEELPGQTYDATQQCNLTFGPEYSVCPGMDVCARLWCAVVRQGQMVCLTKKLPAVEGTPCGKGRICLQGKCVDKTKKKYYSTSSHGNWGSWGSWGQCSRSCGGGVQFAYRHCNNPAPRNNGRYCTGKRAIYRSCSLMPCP
The experiment can be described thus: SPR kinetics, Biacore T100, ADAMTS5 immobilised. How it is done:
as §1

For experiment [2], the target named is T2, recombinant human ADAMTS5 (R&D Systems …). As to the kind of experiment: cell-based or functional assay.

One may read the Kd as the equilibrium constant for the complex coming apart.

B1: Nanobody 093 (3F04 (N100fQ)) (VHH)
VHH: EVQLVESGGGSVQAGGSLRLSCVASGRYPMAWFRQAPGKEREFVAGVSWGGDRTYYADSVQGRFTVSRDYAKNTLYLQMNSLKPEDAAVYYCAGDPWGRLFRVKDQYSDWGQGTLVTVSS
notes: N-glycosylation motif knocked out; also called construct 093
For the molecule B1, the figures for the Kd (with rat recombinant ADAMTS5; in experiment [1]) were 5.3 nM and 4.9 nM, respectively.

B2: Nanobody 049 (11B06 (N52S)) (VHH)
VHH: EVQLVESGGGLVQAGGSLRLSCAASGLTFRRNAMGWFRQAPGKERELLAGISWSGGTTYYVDSVKGRFTISRDNAKNTVDLQMISPKPEDTAVYYCAADGDIGTLVNDENPRYWGQGTLVTVSS
notes: N-glycosylation motif knocked out; also called construct 049
As for B2, the “AlphaLISA IC50, - HSA” value in experiment [2] was 0.1 nM. For the same molecule, the Kd is 1.7 nM with rat recombinant ADAMTS5 and 3.5 nM in experiment [1].
